In one assay the test system is EOL-1. In words: Flow cytometry binding to endogenous cell line EOL-1. The assay is classed as cell-based, human. To be noted: primary antibody 1 ug/ml. The arrangement: key to binding to EOL-1 by flow cytometry: (−): No binding; (+): Weak binding; (++): Moderate binding; (+++): Strong binding. As for the experimental part:
(§1) Staining for flow cytometry was performed in 1× cold PBS with 0.5% BSA. Primary antibodies (1 ug/ml) were incubated with live cells on ice for 30 minutes, after a brief wash, cells were incubated with Alexa Fluro® 488-conjugated anti-human IgG secondary antibody @1:1000 (709-546-149, Jackson ImmunoResearch). Acquisition of the data was performed on a MACSQuant® Flow Cytometers (Miltenyi Biotec) and analyzed with FlowJo software.
(§2) Over 1,000 hits were identified that bind strongly to CHO-human IL1RAP, but not parental CHO cells. 68 clones were selected for molecular cloning. Based on unique CDR3 sequences from the heavy chain variable domain, 35 antibodies from 13 families were confirmed by binding in IL1RAP positive cell lines EOL1 and Karpas 299 (see Table 8) by flow cytometry (MACSQuant® www.miltenybiotec.com).
Background: Flow cytometry measures light scatter and fluorescence of single cells or particles in a stream.

The test system of another assay is H69. In words: Flow cytometry binding to endogenous cell line H69. The assay is classed as cell-based. The arrangement: key: (−): No binding; (+): Weak binding; (++): Moderate binding; (+++): Strong binding. As to conditions: primary antibody 1 ug/ml. On the procedure:
as §1

For another assay, the target named is T1, recombinant human IL1RAP (Homo sapiens, UniProt Q9NPH3).
T1 construct: MBP-IL1RAP(S21-T367)-; 8xHis (C); made in house; host or cells: CHO (ExpiCHO transient expression)
The assay is described as follows: Binding competition binning on Octet. To be noted: Protein A biosensors. As for the experimental part:
Binding Competition binning: Binding competition among different antibodies was determined using a real-time, interferometry assay on an Octet Red™ instrument with Protein A-conjugated biosensors. To assess whether two antibodies competed for binding to a recombinant IL1RAP protein, the assay was performed as follows. Protein A biosensors were first submerged into wells containing 10 ug/mL of individual monoclonal antibodies for 5 minutes. Following the capture step, the biosensors were dipped briefly (15 seconds) into buffer and then any unoccupied sites on the biosensor were saturated by submerging them for 5 minutes into wells containing 100 ug/mL of an irrelevant monoclonal antibody. The Octet™ biosensors were then dipped briefly (15 seconds) in buffer before immersion for 1 minute into wells containing recombinant IL1RAP. The biosensors were dipped briefly (15 seconds) in buffer before immersion for 1 minute into wells containing a second recombinant antibody.
For the control case where the second antibody was the same as the first, there was no increase in signal, because there was no additional binding to the recombinant target.
For the control case where buffer was used instead of the first antibody, no recombinant target bound the non-quenching antibody on the biosensor and no second antibody bound the biosensor.
Selected antibodies were evaluated in pairs for their ability to simultaneously bind recombinant human IL1RAP. The analysis was performed by Octet™ loaded with Protein A Biosensors. A total of five different bins were determined as follows.
In general terms: BLI is a label-free optical method that tracks binding on a fibre tip over time.

A further assay deals with IL-1β signaling. The assay is described as follows: IL-1 signaling reporter cell assay (HEK-Blue IL-1β cells), IL-1β. The assay is classed as cell-based. As to conditions: HEK-Blue IL-1β cells, antibody 1-10 pg/ml, IL-1β 0.5 ng/ml. On the procedure:
(§3) HEK-Blue IL-1β cells (Invivogen, CA) were harvested and plated in technical duplicates at a density of 50,000 cells per well in a 96-well plate. IL1RAP antibodies, or a corresponding human IgG1 control antibody was added to the wells in a concentration range of […]. After incubating cells with antibodies for 30 minutes, IL-1β was added to a final concentration of 0.5 ng/ml, and the plate was incubated overnight. To examine whether any of the antibodies were able to induce IL-1R activation in the absence of IL-1β, samples were incubated with 10 μg/mL antibody without addition of the ligand. The following day, substrate was added to the supernatants, and samples were analyzed for absorbance at 620 nm.

The subject of the next assay is Karpas 299. In words: Flow cytometry binding to endogenous cell line Karpas 299. The assay is classed as cell-based, human. The arrangement: key to binding to Karpas 299 by flow cytometry: (−): No binding; (+): Weak binding; (++): Moderate binding; (+++): Strong binding. As to conditions: primary antibody 1 ug/ml. As for the experimental part:
as §1, §2

The subject of a further assay is MOLT3. The assay is described as follows: Flow cytometry binding to endogenous cell line MOLT3. The assay is classed as cell-based. Details: key: (−): No binding; (+): Weak binding; (++): Moderate binding; (+++): Strong binding. As to conditions: primary antibody 1 ug/ml. As for the experimental part:
as §1

The next assay has as its system IL-33 signaling. The assay is described as follows: IL-33 signaling reporter cell assay (HEK-Blue IL-33 cells). The assay is classed as cell-based. To be noted: antibody 1-10 μg/ml, IL-33 0.5 ng/ml. On the procedure: FIGS. 7A and 7B show blockage of IL-33 signaling by anti-IL1RAP antibodies. HEK-Blue IL-33 cells (Invivogen, CA) were harvested and plated in technical duplicates at a density of 50,000 cells per well in a 96-well plate. Antibodies, or a corresponding human IgG1 control antibody, was added to the wells in a serial dilution starting at 10 μg/ml (FIG. 7A), or a concentration of 1 and 10 μg/ml (FIG. 7B). After incubating cells with antibodies for 30 minutes, IL-33 was added to a final concentration of 0.5 ng/ml, and the plate was incubated overnight. 24 hours later, substrate was added to the supernatants, and samples were analyzed for absorbance at 620 nm. CBIgG1 (anti-hen egg lysozyme antibody, CrownBio™) was included as a negative control.
as §3, with “IL-33” for “IL-1β”, “plate.” for “plate. IL1RAP”, “ST2” for “IL-1R”, “IL-33,” for “IL-1β,”

Another assay concerns the target T2, mouse IL1RAP (Mus musculus, UniProt Q61730).
T2 construct: Met1-Val570; host or cells: HEK-293T
In words: Flow cytometry binding to 293 cells expressing mouse IL1RAP. The format is cell-based. As to conditions: 1 ug/ml. As for the experimental part: 293T cell line was purchased from American Type Culture Collection (ATCC). 293T cells expressing human, Macaca fascicularis, rat, and mouse IL1RAP were maintained in DMEM medium (Invitrogen) with 10% fetal bovine serum (FBS) (Sigma) in the presence of 2 ug/ml puromycin (Invitrogen).
as §1

T2 sequence (Q61730 21-570): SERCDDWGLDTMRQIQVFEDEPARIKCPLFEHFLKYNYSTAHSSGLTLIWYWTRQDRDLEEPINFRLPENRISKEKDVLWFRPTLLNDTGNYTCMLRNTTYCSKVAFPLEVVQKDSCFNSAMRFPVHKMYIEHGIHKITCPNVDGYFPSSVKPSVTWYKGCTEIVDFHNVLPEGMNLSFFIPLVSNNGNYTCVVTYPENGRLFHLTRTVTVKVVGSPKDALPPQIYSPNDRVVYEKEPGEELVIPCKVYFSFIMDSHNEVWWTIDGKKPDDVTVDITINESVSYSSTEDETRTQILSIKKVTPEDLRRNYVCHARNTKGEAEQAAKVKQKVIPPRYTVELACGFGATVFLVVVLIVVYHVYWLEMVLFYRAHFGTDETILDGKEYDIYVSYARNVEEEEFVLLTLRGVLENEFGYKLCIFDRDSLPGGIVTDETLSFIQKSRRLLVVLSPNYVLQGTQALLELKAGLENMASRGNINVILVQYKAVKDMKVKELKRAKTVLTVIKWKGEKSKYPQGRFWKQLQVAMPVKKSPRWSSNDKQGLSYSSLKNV

B1: 5G8_18A1: human anti-IL1RAP antibody, VH SEQ ID NO: 1, VL SEQ ID NO: 5 (antibody, V domains shown)
VH: QVELQESGPGLVKPSDTLSLTCTVTGGSISTYYWSWIRQPPGKGLEWIGYIFYTGTTNYNPSLKSRVTISVDASKNQFSLKLNSVTAADTAVYYCARDGSLDYWGQGALVTVSS
VL: DIQMTQSPSSLSASVGDRVTITCRASQSISNYLNWYQQKPGKAPKLLIFVASLLQSGVPSRFSGSGSGTDFTLTISSLQPEDFATYYCQQSYSTPFTFGPGTKLEIK
Consider B1, for which the “binding to EOL-1 by flow cytometry” value in the assay on EOL-1 was “(+++)”. Also, the “binding to H69 by flow cytometry” value with H69 is “(−)”. For the same molecule, in the assay with recombinant human IL1RAP, the “competition for binding, bin (2)” value is recorded as “competed with each other” and the “competition for binding, bin (3)” value is listed as “competed with each other”. Further, in the assay with IL-1β signaling, the “inhibition of IL1R1 / IL-1 signaling” value is “potent inhibition”.

B2: 16H2_17D2: human anti-IL1RAP antibody, VH SEQ ID NO: 25, VL SEQ ID NO: 29 (antibody, V domains shown)
VH: QVQLVESGGGVVQPGGSLRLSCAASGFTFSSHGMHWVRQAPGKGLEWVAVIWYDGSNKFYTDSVQGRFTISRDNSKNTLNLQMNSLRAEDTAVYYCAREGLRAGYYFDFWGQGTLVTVSS
VL: DIQMTQSPSSLSASVGDRVTITCRASQRISFYSNWYQQKPGKAPKLLIYAASSLQSGVPSRFSGSGSGTDFTLTISSLQPEDFATYFCQQSHSTPLTFGGGTKLEIK
For B2, in the assay on EOL-1, the “binding to EOL-1 by flow cytometry” value is “(+++)”. Further, the “competition for binding, bin (2)” value with recombinant human IL1RAP is listed as “competed with each other”. The “inhibition of IL1R1 / IL-1 signaling” value with IL-1β signaling is recorded as “potent inhibition”.

B3: 10C8_15A4: human anti-IL1RAP antibody, VH SEQ ID NO: 106, VL SEQ ID NO: 108 (antibody, V domains shown)
VH: EEQLLESGADLAQPGGSLRLSCAASGFTFSSYAMSWVRQAPGKGLEWVSTIRISGDTTYYADSVKGRFTISRDNSKNTLFLQMNSLRAEDTAVYYCVRDYYNGMDVWGHGTTVTVSS
VL: EIVLTQSPATLSLSPGERATLSCRASQRVSSYLAWYQQKPGQAPRLLIYDASNRATGIPARFSGSGSGTDFTLTISSLEPEDFAVYYCQQRSYWPPAFGQGTKLEIK
For B3, the “binding to EOL-1 by flow cytometry” value in the assay on EOL-1 is given as “(+++)”. Also, in the assay with Karpas 299, the “binding to Karpas 299 by flow cytometry” value is listed as “(+++)”. Also, the “binding to H69 by flow cytometry” value in the assay with H69 is on record as “(−)”.

B4: 26C5_15B4: human anti-IL1RAP antibody, VH SEQ ID NO: 96, VL SEQ ID NO: 98 (antibody, V domains shown)
VH: EAQLLESGGGLVQPGGSLRLSCAASGFTFSSYAMSWVRQAPGKGLEWVSTISGSGGSTHYADSVKGRFTISRDNSKNTLYLQMNSLRAEDTAVYYCVRDYYYGMDVWGQGTTVTVSS
VL: EIVLTQSPATLSLSPGERATLSCRASQSVSSYLAWYQQKPGQAPRLLIYDASNRATGIPARFSGSGSGTDFTLTISSLEPEDFAVYYCQQRSYWPPTFGQGTKLEIK
Turning to B4, the “binding to EOL-1 by flow cytometry” value in the assay with EOL-1 is reported as “(+++)”. Moreover, the “binding to Karpas 299 by flow cytometry” value in the assay on Karpas 299 is “(+++)”. The “binding to H69 by flow cytometry” value with H69 is reported as “(−)”.

B5: 16H2_17D1: human anti-IL1RAP antibody, VH SEQ ID NO: 83, VL SEQ ID NO: 87 (antibody, V domains shown)
VH: EVQLLESGADLVQPGGSLRLSCAASGFTFSSYAMSWVRQAPGKGLEWVSTIRISGGTTYYADSVKGRFTISRDNSKNTLYLQMNSLRAEDTAVYYCVRDYYNGMDVWGQGTTVTVSS
VL: EIVLTQSPATLSLSPGERATLSCRASQRVSSYLAWYQQKPGQAPRLLIYDASNRATGIPARFSGSGSGTDFTLTISSLEPEDFAVYYCQQRSYWPPAFGQGTKLEIK
As for B5, the “binding to EOL-1 by flow cytometry” value with EOL-1 is “(+++)”. The “binding to Karpas 299 by flow cytometry” value in the assay on Karpas 299 was “(+++)”. Also, the “binding to H69 by flow cytometry” value in the assay with H69 was “(−)”.

B6: 36A10_21B6: human anti-IL1RAP antibody, VH SEQ ID NO: 48, VL SEQ ID NO: 52 (antibody, V domains shown)
VH: QGQVVESGGGVVQPGRSLRLSCAASGFTFSSYTLHWVRQAPGKGLEWVAVIWYDGSNKYYVDSVKGRFTISRDNSKNTLYLQMNSLRAEDTAVYYCAREYGSGSYYNVYYGMDVWGQGTTVTLSS
VL: DIVMTQSPLSLPVTPGEPASISCRSSQSLLHSNGYNYLDWYLQKPGQSPHLLIYLASNRASGVPDRFSGSGSGTDFTLKISRVEAEDVGFYYCMQTLQIPLTFGGGTKVEIK
Regarding B6, the “binding to EOL-1 by flow cytometry” value with EOL-1 is “(+++)”. For the same molecule, in the assay with Karpas 299, the “binding to Karpas 299 by flow cytometry” value is listed as “(++)”. The “binding to MOLT3 by flow cytometry” value in the assay with MOLT3 is “(+)”. In the assay with recombinant human IL1RAP, the “competition for binding, bin (3)” value is “competed with each other” and the “competition for binding, bin (4)” value is reported as “competed with each other”. Moreover, the “inhibition of IL1R1 / IL-1 signaling” value in the assay on IL-1β signaling is “potent inhibition”. Also, the “inhibition of IL-33 signaling” value in the assay on IL-33 signaling is “partially inhibit”.

B7: 5D12_18A4: human anti-IL1RAP antibody, VH SEQ ID NO: 163, VL SEQ ID NO: 167 (antibody, V domains shown)
VH: QVQLQESGPGLVKPLGTLSLTCAVSGGSISNSNWWSWVRQPPGKGLEWIGEIYHSGSTNYNPSLKSRVTIALDWSKNQFSLQLRSVTAADTAVYYCARYGSGPFGGDCWGQGTLVTVSS
VL: DIQLTQSPSFLSASVGDRVTISCRASQGISSYLAWYQQKPGKAPKLLIYAASTLQGGVPSRFSGSGSGTTFTLTISSLQPEDFATYYCQQLNTYPFTFGPGTKLEIK
For the molecule B7, the “binding to EOL-1 by flow cytometry” value in the assay on EOL-1 is listed as “(+++)”. Further, the “binding to Karpas 299 by flow cytometry” value in the assay with Karpas 299 was “(++)”. Further, in the assay with recombinant human IL1RAP, the “competition for binding, bin (1)” value is given as “competed with each other”. The “binding to 293 cells expressing mouse IL1RAP” value in the assay with mouse IL1RAP is given as “bind weakly”.

These data come from patent publication US20260008856A1, “METHODS OF TREATING DISEASE USING ANTI-IL1RAP ANTIBODIES AND ANTIBODY DRUG CONJUGATES” (Bluefin Biomedicine, Inc., priority 2022, published 2026).
